Laboratory results: patent US20100099610A1 (published 2010)

How the values were obtained:
hGHQ141N = hGHQ141N (human, UniProt P01241 27-217); assay: cell-based or functional assay
hGHQ40N = hGHQ40N (human, UniProt P01241 27-217); assay: cell-based or functional assay
hGHQ40N, sequence (P01241 27-217 Q66N): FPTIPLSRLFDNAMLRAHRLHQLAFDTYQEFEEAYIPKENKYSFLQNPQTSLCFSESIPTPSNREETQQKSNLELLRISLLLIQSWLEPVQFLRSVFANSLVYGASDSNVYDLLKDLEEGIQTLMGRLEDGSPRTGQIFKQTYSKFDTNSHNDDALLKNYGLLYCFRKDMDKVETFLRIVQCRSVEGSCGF

hGHQ141N, sequence (P01241 27-217 Q167N): as the sequence (P01241 27-217 Q66N) above, with N40Q, Q141N counted along it

Row | RSA Q40 (hGHQ141N) | RSA Q141 (hGHQ40N) | Binder
1 | 2.22 relative to wild type TGase | 3.25 relative to wild type TGase | S. ladakanum GlyPro-TGase mutant S250M (enzyme) GPDSDERVTPPAEPLDRMPDPYRPSYGRAETIVNNYIRKWQQVYSHRDGRKQQMTEEQREWLSYGCVGVTWVNSGQYPTNRLAFAFFDEDKYKNELKNGRPRSGETRAEFEGRVAKDSFDEAKGFQRARDVASVMNKALENAHDEGAYLDNLKKELANGNDALRNEDARSPFYSALRNTPSFKDRNGGNHDPSKMKAVIYSKHFWSGQDRSGSSDKRKYGDPEAFRPDRGTGLVDMSRDRNIPRSPTSPGEMFVNFDYGWFGAQTEADADKTVWTHGNHYHAPNGSLGAMHVYESKFRNWSDGYSDFDRGAYVVTFVPKSWNTAPDKVKQGWP
2 | 0.05 relative to wild type TGase | 0.18 relative to wild type TGase | S. ladakanum GlyPro-TGase mutant Y62N (enzyme) GPDSDERVTPPAEPLDRMPDPYRPSYGRAETIVNNYIRKWQQVYSHRDGRKQQMTEEQREWLSNGCVGVTWVNSGQYPTNRLAFAFFDEDKYKNELKNGRPRSGETRAEFEGRVAKDSFDEAKGFQRARDVASVMNKALENAHDEGAYLDNLKKELANGNDALRNEDARSPFYSALRNTPSFKDRNGGNHDPSKMKAVIYSKHFWSGQDRSGSSDKRKYGDPEAFRPDRGTGLVDMSRDRNIPRSPTSPGESFVNFDYGWFGAQTEADADKTVWTHGNHYHAPNGSLGAMHVYESKFRNWSDGYSDFDRGAYVVTFVPKSWNTAPDKVKQGWP
3 | 0.1 relative to wild type TGase | 0.18 relative to wild type TGase | S. ladakanum GlyPro-TGase mutant Y75M (enzyme) GPDSDERVTPPAEPLDRMPDPYRPSYGRAETIVNNYIRKWQQVYSHRDGRKQQMTEEQREWLSYGCVGVTWVNSGQMPTNRLAFAFFDEDKYKNELKNGRPRSGETRAEFEGRVAKDSFDEAKGFQRARDVASVMNKALENAHDEGAYLDNLKKELANGNDALRNEDARSPFYSALRNTPSFKDRNGGNHDPSKMKAVIYSKHFWSGQDRSGSSDKRKYGDPEAFRPDRGTGLVDMSRDRNIPRSPTSPGESFVNFDYGWFGAQTEADADKTVWTHGNHYHAPNGSLGAMHVYESKFRNWSDGYSDFDRGAYVVTFVPKSWNTAPDKVKQGWP
4 | 1.3 relative to wild type TGase | 2.43 relative to wild type TGase | S. ladakanum GlyPro-TGase mutant S250W (enzyme) GPDSDERVTPPAEPLDRMPDPYRPSYGRAETIVNNYIRKWQQVYSHRDGRKQQMTEEQREWLSYGCVGVTWVNSGQYPTNRLAFAFFDEDKYKNELKNGRPRSGETRAEFEGRVAKDSFDEAKGFQRARDVASVMNKALENAHDEGAYLDNLKKELANGNDALRNEDARSPFYSALRNTPSFKDRNGGNHDPSKMKAVIYSKHFWSGQDRSGSSDKRKYGDPEAFRPDRGTGLVDMSRDRNIPRSPTSPGEWFVNFDYGWFGAQTEADADKTVWTHGNHYHAPNGSLGAMHVYESKFRNWSDGYSDFDRGAYVVTFVPKSWNTAPDKVKQGWP
5 | 0.06 relative to wild type TGase | 0.18 relative to wild type TGase | S. ladakanum GlyPro-TGase mutant Y75C (enzyme) GPDSDERVTPPAEPLDRMPDPYRPSYGRAETIVNNYIRKWQQVYSHRDGRKQQMTEEQREWLSYGCVGVTWVNSGQCPTNRLAFAFFDEDKYKNELKNGRPRSGETRAEFEGRVAKDSFDEAKGFQRARDVASVMNKALENAHDEGAYLDNLKKELANGNDALRNEDARSPFYSALRNTPSFKDRNGGNHDPSKMKAVIYSKHFWSGQDRSGSSDKRKYGDPEAFRPDRGTGLVDMSRDRNIPRSPTSPGESFVNFDYGWFGAQTEADADKTVWTHGNHYHAPNGSLGAMHVYESKFRNWSDGYSDFDRGAYVVTFVPKSWNTAPDKVKQGWP
6 | 0.07 relative to wild type TGase | 0.2 relative to wild type TGase | S. ladakanum GlyPro-TGase mutant Y62L (enzyme) GPDSDERVTPPAEPLDRMPDPYRPSYGRAETIVNNYIRKWQQVYSHRDGRKQQMTEEQREWLSLGCVGVTWVNSGQYPTNRLAFAFFDEDKYKNELKNGRPRSGETRAEFEGRVAKDSFDEAKGFQRARDVASVMNKALENAHDEGAYLDNLKKELANGNDALRNEDARSPFYSALRNTPSFKDRNGGNHDPSKMKAVIYSKHFWSGQDRSGSSDKRKYGDPEAFRPDRGTGLVDMSRDRNIPRSPTSPGESFVNFDYGWFGAQTEADADKTVWTHGNHYHAPNGSLGAMHVYESKFRNWSDGYSDFDRGAYVVTFVPKSWNTAPDKVKQGWP
7 | 0.06 relative to wild type TGase | 0.18 relative to wild type TGase | S. ladakanum GlyPro-TGase mutant Y75L (enzyme) GPDSDERVTPPAEPLDRMPDPYRPSYGRAETIVNNYIRKWQQVYSHRDGRKQQMTEEQREWLSYGCVGVTWVNSGQLPTNRLAFAFFDEDKYKNELKNGRPRSGETRAEFEGRVAKDSFDEAKGFQRARDVASVMNKALENAHDEGAYLDNLKKELANGNDALRNEDARSPFYSALRNTPSFKDRNGGNHDPSKMKAVIYSKHFWSGQDRSGSSDKRKYGDPEAFRPDRGTGLVDMSRDRNIPRSPTSPGESFVNFDYGWFGAQTEADADKTVWTHGNHYHAPNGSLGAMHVYESKFRNWSDGYSDFDRGAYVVTFVPKSWNTAPDKVKQGWP
8 | 1.62 relative to wild type TGase | 1.92 relative to wild type TGase | S. ladakanum GlyPro-TGase mutant S250Q (enzyme) GPDSDERVTPPAEPLDRMPDPYRPSYGRAETIVNNYIRKWQQVYSHRDGRKQQMTEEQREWLSYGCVGVTWVNSGQYPTNRLAFAFFDEDKYKNELKNGRPRSGETRAEFEGRVAKDSFDEAKGFQRARDVASVMNKALENAHDEGAYLDNLKKELANGNDALRNEDARSPFYSALRNTPSFKDRNGGNHDPSKMKAVIYSKHFWSGQDRSGSSDKRKYGDPEAFRPDRGTGLVDMSRDRNIPRSPTSPGEQFVNFDYGWFGAQTEADADKTVWTHGNHYHAPNGSLGAMHVYESKFRNWSDGYSDFDRGAYVVTFVPKSWNTAPDKVKQGWP
9 | 1.86 relative to wild type TGase | 3.99 relative to wild type TGase | S. ladakanum GlyPro-TGase mutant S250P (enzyme) GPDSDERVTPPAEPLDRMPDPYRPSYGRAETIVNNYIRKWQQVYSHRDGRKQQMTEEQREWLSYGCVGVTWVNSGQYPTNRLAFAFFDEDKYKNELKNGRPRSGETRAEFEGRVAKDSFDEAKGFQRARDVASVMNKALENAHDEGAYLDNLKKELANGNDALRNEDARSPFYSALRNTPSFKDRNGGNHDPSKMKAVIYSKHFWSGQDRSGSSDKRKYGDPEAFRPDRGTGLVDMSRDRNIPRSPTSPGEPFVNFDYGWFGAQTEADADKTVWTHGNHYHAPNGSLGAMHVYESKFRNWSDGYSDFDRGAYVVTFVPKSWNTAPDKVKQGWP
10 | 0.51 relative to wild type TGase | 0.96 relative to wild type TGase | S. ladakanum GlyPro-TGase mutant S250V (enzyme) GPDSDERVTPPAEPLDRMPDPYRPSYGRAETIVNNYIRKWQQVYSHRDGRKQQMTEEQREWLSYGCVGVTWVNSGQYPTNRLAFAFFDEDKYKNELKNGRPRSGETRAEFEGRVAKDSFDEAKGFQRARDVASVMNKALENAHDEGAYLDNLKKELANGNDALRNEDARSPFYSALRNTPSFKDRNGGNHDPSKMKAVIYSKHFWSGQDRSGSSDKRKYGDPEAFRPDRGTGLVDMSRDRNIPRSPTSPGEVFVNFDYGWFGAQTEADADKTVWTHGNHYHAPNGSLGAMHVYESKFRNWSDGYSDFDRGAYVVTFVPKSWNTAPDKVKQGWP
11 | 0.1 relative to wild type TGase | 0.19 relative to wild type TGase | S. ladakanum GlyPro-TGase mutant Y62T (enzyme) GPDSDERVTPPAEPLDRMPDPYRPSYGRAETIVNNYIRKWQQVYSHRDGRKQQMTEEQREWLSTGCVGVTWVNSGQYPTNRLAFAFFDEDKYKNELKNGRPRSGETRAEFEGRVAKDSFDEAKGFQRARDVASVMNKALENAHDEGAYLDNLKKELANGNDALRNEDARSPFYSALRNTPSFKDRNGGNHDPSKMKAVIYSKHFWSGQDRSGSSDKRKYGDPEAFRPDRGTGLVDMSRDRNIPRSPTSPGESFVNFDYGWFGAQTEADADKTVWTHGNHYHAPNGSLGAMHVYESKFRNWSDGYSDFDRGAYVVTFVPKSWNTAPDKVKQGWP
12 | 2.57 relative to wild type TGase | 4.23 relative to wild type TGase | S. ladakanum GlyPro-TGase mutant S250A (enzyme) GPDSDERVTPPAEPLDRMPDPYRPSYGRAETIVNNYIRKWQQVYSHRDGRKQQMTEEQREWLSYGCVGVTWVNSGQYPTNRLAFAFFDEDKYKNELKNGRPRSGETRAEFEGRVAKDSFDEAKGFQRARDVASVMNKALENAHDEGAYLDNLKKELANGNDALRNEDARSPFYSALRNTPSFKDRNGGNHDPSKMKAVIYSKHFWSGQDRSGSSDKRKYGDPEAFRPDRGTGLVDMSRDRNIPRSPTSPGEAFVNFDYGWFGAQTEADADKTVWTHGNHYHAPNGSLGAMHVYESKFRNWSDGYSDFDRGAYVVTFVPKSWNTAPDKVKQGWP
13 | 0.1 relative to wild type TGase | 0.28 relative to wild type TGase | S. ladakanum GlyPro-TGase mutant Y62M (enzyme) GPDSDERVTPPAEPLDRMPDPYRPSYGRAETIVNNYIRKWQQVYSHRDGRKQQMTEEQREWLSMGCVGVTWVNSGQYPTNRLAFAFFDEDKYKNELKNGRPRSGETRAEFEGRVAKDSFDEAKGFQRARDVASVMNKALENAHDEGAYLDNLKKELANGNDALRNEDARSPFYSALRNTPSFKDRNGGNHDPSKMKAVIYSKHFWSGQDRSGSSDKRKYGDPEAFRPDRGTGLVDMSRDRNIPRSPTSPGESFVNFDYGWFGAQTEADADKTVWTHGNHYHAPNGSLGAMHVYESKFRNWSDGYSDFDRGAYVVTFVPKSWNTAPDKVKQGWP
14 | 0.95 relative to wild type TGase | 1.71 relative to wild type TGase | S. ladakanum GlyPro-TGase mutant S250Y (enzyme) GPDSDERVTPPAEPLDRMPDPYRPSYGRAETIVNNYIRKWQQVYSHRDGRKQQMTEEQREWLSYGCVGVTWVNSGQYPTNRLAFAFFDEDKYKNELKNGRPRSGETRAEFEGRVAKDSFDEAKGFQRARDVASVMNKALENAHDEGAYLDNLKKELANGNDALRNEDARSPFYSALRNTPSFKDRNGGNHDPSKMKAVIYSKHFWSGQDRSGSSDKRKYGDPEAFRPDRGTGLVDMSRDRNIPRSPTSPGEYFVNFDYGWFGAQTEADADKTVWTHGNHYHAPNGSLGAMHVYESKFRNWSDGYSDFDRGAYVVTFVPKSWNTAPDKVKQGWP
15 | 0.59 relative to wild type TGase | 0.83 relative to wild type TGase | S. ladakanum GlyPro-TGase mutant S250R (enzyme) GPDSDERVTPPAEPLDRMPDPYRPSYGRAETIVNNYIRKWQQVYSHRDGRKQQMTEEQREWLSYGCVGVTWVNSGQYPTNRLAFAFFDEDKYKNELKNGRPRSGETRAEFEGRVAKDSFDEAKGFQRARDVASVMNKALENAHDEGAYLDNLKKELANGNDALRNEDARSPFYSALRNTPSFKDRNGGNHDPSKMKAVIYSKHFWSGQDRSGSSDKRKYGDPEAFRPDRGTGLVDMSRDRNIPRSPTSPGERFVNFDYGWFGAQTEADADKTVWTHGNHYHAPNGSLGAMHVYESKFRNWSDGYSDFDRGAYVVTFVPKSWNTAPDKVKQGWP
